Tests used:
[1] = target: FLAG-tagged PARP-1 in HEK293T cells (UniProt P09874); assay: co-IP (anti-FLAG) and Western blotting, band intensity by ImageJ; conditions: 48 h post-transfection, parent: 1.0
[2] = target: His-tagged mouse PARP-1 protein (Sino Biological) (mouse) (UniProt P11103); assay: SPR; […], CM5 chip; […], HBS-EP (10 mM HEPES pH 7.4, 150 mM NaCl, 3 mM EDTA, 0.005% P20); 1:1 binding model
[3] = target: MHV-68 viral PARP-1-interacting protein (vPIP; ORF49), purified recombinant (murine gammaherpesvirus 68 (MHV-68)); assay: SEC-MALS; 50 mM HEPES pH 7.5, 100 mM NaCl; WTC-050S5 column, DAWN HELEOS II and Optilab T-rEX detectors

Sequence of UniProt P09874 (P09874 whole entry): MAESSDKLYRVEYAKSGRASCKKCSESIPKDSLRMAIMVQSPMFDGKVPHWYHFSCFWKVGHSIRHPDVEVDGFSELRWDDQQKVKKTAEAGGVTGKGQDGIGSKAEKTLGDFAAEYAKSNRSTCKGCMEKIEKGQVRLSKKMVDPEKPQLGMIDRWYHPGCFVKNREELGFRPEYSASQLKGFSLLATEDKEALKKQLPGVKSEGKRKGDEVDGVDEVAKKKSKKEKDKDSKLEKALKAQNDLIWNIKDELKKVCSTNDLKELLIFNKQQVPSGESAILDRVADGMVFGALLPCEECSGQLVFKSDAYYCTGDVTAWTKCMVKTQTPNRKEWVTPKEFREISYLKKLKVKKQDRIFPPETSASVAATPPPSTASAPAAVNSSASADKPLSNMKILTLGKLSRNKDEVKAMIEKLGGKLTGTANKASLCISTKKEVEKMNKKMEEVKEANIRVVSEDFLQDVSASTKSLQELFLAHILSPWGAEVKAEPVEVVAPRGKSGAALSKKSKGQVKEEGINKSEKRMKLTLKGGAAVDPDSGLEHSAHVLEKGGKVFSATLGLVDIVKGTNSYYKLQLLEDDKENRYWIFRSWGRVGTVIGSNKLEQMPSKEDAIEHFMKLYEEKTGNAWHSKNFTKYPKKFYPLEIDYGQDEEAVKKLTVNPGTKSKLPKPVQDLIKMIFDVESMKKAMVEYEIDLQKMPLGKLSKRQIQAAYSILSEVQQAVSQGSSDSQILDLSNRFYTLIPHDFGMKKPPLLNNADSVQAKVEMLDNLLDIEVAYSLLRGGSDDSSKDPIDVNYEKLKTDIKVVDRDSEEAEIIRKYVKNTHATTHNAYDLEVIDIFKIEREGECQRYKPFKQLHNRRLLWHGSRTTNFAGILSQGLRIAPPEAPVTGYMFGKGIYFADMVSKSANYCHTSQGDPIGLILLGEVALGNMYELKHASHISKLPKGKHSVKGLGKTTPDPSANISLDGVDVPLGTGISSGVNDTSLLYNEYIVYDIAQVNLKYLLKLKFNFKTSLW
Sequence of UniProt P11103 (P11103 whole entry): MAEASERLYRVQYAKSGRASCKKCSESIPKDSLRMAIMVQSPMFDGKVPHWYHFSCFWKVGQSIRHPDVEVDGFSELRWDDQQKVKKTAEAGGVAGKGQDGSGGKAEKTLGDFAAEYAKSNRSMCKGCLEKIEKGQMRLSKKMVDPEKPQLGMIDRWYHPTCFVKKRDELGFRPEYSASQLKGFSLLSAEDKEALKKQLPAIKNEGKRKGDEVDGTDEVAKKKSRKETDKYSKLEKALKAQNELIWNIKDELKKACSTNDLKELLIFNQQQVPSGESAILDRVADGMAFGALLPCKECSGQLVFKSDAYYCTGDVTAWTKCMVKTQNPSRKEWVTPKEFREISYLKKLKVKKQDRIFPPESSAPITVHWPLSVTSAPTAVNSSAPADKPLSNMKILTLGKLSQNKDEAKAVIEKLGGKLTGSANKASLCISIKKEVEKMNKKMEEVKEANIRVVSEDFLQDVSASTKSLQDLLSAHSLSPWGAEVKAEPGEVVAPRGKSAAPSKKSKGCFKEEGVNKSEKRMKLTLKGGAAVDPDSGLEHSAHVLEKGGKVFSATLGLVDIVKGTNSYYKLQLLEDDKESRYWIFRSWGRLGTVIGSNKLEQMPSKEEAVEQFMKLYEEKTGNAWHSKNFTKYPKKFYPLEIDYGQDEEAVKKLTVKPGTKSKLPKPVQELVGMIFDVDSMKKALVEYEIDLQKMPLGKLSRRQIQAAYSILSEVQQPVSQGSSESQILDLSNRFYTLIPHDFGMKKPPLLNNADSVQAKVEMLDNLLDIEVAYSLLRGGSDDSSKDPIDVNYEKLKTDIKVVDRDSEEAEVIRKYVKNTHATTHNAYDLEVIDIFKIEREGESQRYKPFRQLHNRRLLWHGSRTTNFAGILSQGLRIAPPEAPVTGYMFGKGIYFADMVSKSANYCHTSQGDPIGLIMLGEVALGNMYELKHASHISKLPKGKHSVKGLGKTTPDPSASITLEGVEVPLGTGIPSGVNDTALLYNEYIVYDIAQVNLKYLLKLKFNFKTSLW

**Q.** Which ratio to parent [1] does the source give for “MYC-tagged vPIP wild type in HEK293T cells H47A; D50A” here?
**A.** 1.4

**Q.** Which ratio to parent [1] does the source give for “MYC-tagged vPIP wild type in HEK293T cells F5A; S12A; T16A; H47A; D50A” here?
**A.** 0.3

**Q.** How did the ratio to parent [1] turn out when “MYC-tagged vPIP wild type in HEK293T cells F5A; S12A; T16A” was run?
**A.** 0.5

**Q.** “ORF49_(KSHV), purified recombinant (natural protein)” was tested. Which Kd [2] did it give?
**A.** 410 nM

**Q.** With “MHV-68 viral PARP-1-interacting protein (vPIP; ORF49), purified recombinant (natural protein)” as the substance, how does the stoichiometry N [3] read?
**A.** 2

**Q.** And the Kd [2]?
**A.** 930 nM
